Data taken from the supplement of paper PMC9112550, “Optimization of the antimicrobial peptide Bac7 by deep mutational scanning” (BMC Biology, 2022).

Tested on: Escherichia coli TOP10
Test: shrunken log2 fold change of peptide-encoding DNA abundance (4.5 h post-induction vs induction); higher = less antimicrobial activity (less host growth inhibition)
Details: time post-induction: 4.5 h; library: site-saturation at positions 5, 18, 19, 20
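Note: peptides expressed intracellularly from a pBAD plasmid library in pooled LB shake-flask culture, induced with 0.3% L-arabinose, DNA abundance read by NGS, three biological replicates, DESeq2 with apeglm shrinkage.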

RRIRNRPPRLPRPRPRPFMGPRP
shrunken log2 fold change: -0.168

RRIRNRPPRLPRPRPRPFPPPRP
shrunken log2 fold change: -0.32

RRIRNRPPRLPRPRPRPFRTPRP
shrunken log2 fold change: -0.066

RRIRNRPPRLPRPRPRPFTQPRP
shrunken log2 fold change: -0.348

RRIRNRPPRLPRPRPRPFVEPRP
shrunken log2 fold change: -0.12

RRIRNRPPRLPRPRPRPFWCPRP
shrunken log2 fold change: 0.000145

RRIRNRPPRLPRPRPRPFWFPRP
shrunken log2 fold change: 0.195

RRIRNRPPRLPRPRPRPFYHPRP
shrunken log2 fold change: -0.0822

RRIRNRPPRLPRPRPRPGAQPRP
shrunken log2 fold change: 0.0369

RRIRNRPPRLPRPRPRPGDSPRP
shrunken log2 fold change: -0.0564

RRIRNRPPRLPRPRPRPGDYPRP
shrunken log2 fold change: 0.0582

RRIRNRPPRLPRPRPRPGEAPRP
shrunken log2 fold change: 0.33

RRIRNRPPRLPRPRPRPGFQPRP
shrunken log2 fold change: -0.0148

RRIRNRPPRLPRPRPRPGGMPRP
shrunken log2 fold change: -0.0941

RRIRNRPPRLPRPRPRPGGSPRP
shrunken log2 fold change: 0.407

RRIRNRPPRLPRPRPRPGHYPRP
shrunken log2 fold change: -0.171

RRIRNRPPRLPRPRPRPGIYPRP
shrunken log2 fold change: -0.105

RRIRNRPPRLPRPRPRPGLEPRP
shrunken log2 fold change: -0.0966

RRIRNRPPRLPRPRPRPGLFPRP
shrunken log2 fold change: 0.0823

RRIRNRPPRLPRPRPRPGNDPRP
shrunken log2 fold change: -0.0364

RRIRNRPPRLPRPRPRPGNLPRP
shrunken log2 fold change: -0.186

RRIRNRPPRLPRPRPRPGNWPRP
shrunken log2 fold change: 0.0557

RRIRNRPPRLPRPRPRPGRVPRP
shrunken log2 fold change: 0.296

RRIRNRPPRLPRPRPRPGSRPRP
shrunken log2 fold change: -0.0159

RRIRNRPPRLPRPRPRPGTQPRP
shrunken log2 fold change: -0.128

RRIRNRPPRLPRPRPRPGTSPRP
shrunken log2 fold change: -0.0337

RRIRNRPPRLPRPRPRPGVMPRP
shrunken log2 fold change: -0.141

RRIRNRPPRLPRPRPRPGVQPRP
shrunken log2 fold change: 0.444

RRIRNRPPRLPRPRPRPGYKPRP
shrunken log2 fold change: 0.0376

RRIRNRPPRLPRPRPRPHCQPRP
shrunken log2 fold change: -0.861

RRIRNRPPRLPRPRPRPHDFPRP
shrunken log2 fold change: 0.137

RRIRNRPPRLPRPRPRPHEIPRP
shrunken log2 fold change: -0.102

RRIRNRPPRLPRPRPRPHENPRP
shrunken log2 fold change: -0.164

RRIRNRPPRLPRPRPRPHGRPRP
shrunken log2 fold change: 0.00746

RRIRNRPPRLPRPRPRPHHWPRP
shrunken log2 fold change: -0.0959

RRIRNRPPRLPRPRPRPHIFPRP
shrunken log2 fold change: -0.0701

RRIRNRPPRLPRPRPRPHISPRP
shrunken log2 fold change: -0.0617

RRIRNRPPRLPRPRPRPHLNPRP
shrunken log2 fold change: -0.599

RRIRNRPPRLPRPRPRPHLPPRP
shrunken log2 fold change: 0.0211

RRIRNRPPRLPRPRPRPHLWPRP
shrunken log2 fold change: 0.0922

RRIRNRPPRLPRPRPRPHLYPRP
shrunken log2 fold change: -0.22

RRIRNRPPRLPRPRPRPHMTPRP
shrunken log2 fold change: 0.0432

RRIRNRPPRLPRPRPRPHPFPRP
shrunken log2 fold change: -0.0852

RRIRNRPPRLPRPRPRPHRIPRP
shrunken log2 fold change: -0.0314

RRIRNRPPRLPRPRPRPHRQPRP
shrunken log2 fold change: -0.0962

RRIRNRPPRLPRPRPRPHRRPRP
shrunken log2 fold change: 0.143

RRIRNRPPRLPRPRPRPHTAPRP
shrunken log2 fold change: -0.158

RRIRNRPPRLPRPRPRPHVRPRP
shrunken log2 fold change: -0.12

RRIRNRPPRLPRPRPRPHYNPRP
shrunken log2 fold change: -0.619

RRIRNRPPRLPRPRPRPIATPRP
shrunken log2 fold change: -0.0576

RRIRNRPPRLPRPRPRPICCPRP
shrunken log2 fold change: -0.062

RRIRNRPPRLPRPRPRPICQPRP
shrunken log2 fold change: -0.0999

RRIRNRPPRLPRPRPRPIDHPRP
shrunken log2 fold change: -0.169

RRIRNRPPRLPRPRPRPIDIPRP
shrunken log2 fold change: -0.947

RRIRNRPPRLPRPRPRPIDYPRP
shrunken log2 fold change: -0.168

RRIRNRPPRLPRPRPRPIFKPRP
shrunken log2 fold change: -0.174

RRIRNRPPRLPRPRPRPIFSPRP
shrunken log2 fold change: 0.0636

RRIRNRPPRLPRPRPRPIHNPRP
shrunken log2 fold change: -0.976

RRIRNRPPRLPRPRPRPIHRPRP
shrunken log2 fold change: 0.0891

RRIRNRPPRLPRPRPRPIKMPRP
shrunken log2 fold change: -0.404

RRIRNRPPRLPRPRPRPIKPPRP
shrunken log2 fold change: -0.00904

RRIRNRPPRLPRPRPRPIKYPRP
shrunken log2 fold change: -0.068

RRIRNRPPRLPRPRPRPILWPRP
shrunken log2 fold change: 0.123

RRIRNRPPRLPRPRPRPIMKPRP
shrunken log2 fold change: -0.059

RRIRNRPPRLPRPRPRPIMSPRP
shrunken log2 fold change: -0.103

RRIRNRPPRLPRPRPRPIPGPRP
shrunken log2 fold change: -0.0332

RRIRNRPPRLPRPRPRPIPPPRP
shrunken log2 fold change: -0.0301

RRIRNRPPRLPRPRPRPIRYPRP
shrunken log2 fold change: -0.746

RRIRNRPPRLPRPRPRPISRPRP
shrunken log2 fold change: -0.612

RRIRNRPPRLPRPRPRPITTPRP
shrunken log2 fold change: -0.225

RRIRNRPPRLPRPRPRPITYPRP
shrunken log2 fold change: -1.09

RRIRNRPPRLPRPRPRPIWIPRP
shrunken log2 fold change: -0.0856

RRIRNRPPRLPRPRPRPIYYPRP
shrunken log2 fold change: -0.977

RRIRNRPPRLPRPRPRPKFAPRP
shrunken log2 fold change: -0.0695

RRIRNRPPRLPRPRPRPKGHPRP
shrunken log2 fold change: -0.104

RRIRNRPPRLPRPRPRPKIRPRP
shrunken log2 fold change: -0.0344

RRIRNRPPRLPRPRPRPKKVPRP
shrunken log2 fold change: -0.0914

RRIRNRPPRLPRPRPRPKLEPRP
shrunken log2 fold change: 0.0965

RRIRNRPPRLPRPRPRPKMSPRP
shrunken log2 fold change: -0.064

RRIRNRPPRLPRPRPRPKNKPRP
shrunken log2 fold change: -0.0876

RRIRNRPPRLPRPRPRPKNLPRP
shrunken log2 fold change: 0.13

RRIRNRPPRLPRPRPRPKNPPRP
shrunken log2 fold change: 0.0494

RRIRNRPPRLPRPRPRPKPTPRP
shrunken log2 fold change: 0.133

RRIRNRPPRLPRPRPRPKQTPRP
shrunken log2 fold change: 0.317

RRIRNRPPRLPRPRPRPKRCPRP
shrunken log2 fold change: 0.406

RRIRNRPPRLPRPRPRPKSGPRP
shrunken log2 fold change: 0.161

RRIRNRPPRLPRPRPRPKTWPRP
shrunken log2 fold change: 0.0949

RRIRNRPPRLPRPRPRPKVIPRP
shrunken log2 fold change: -0.264

RRIRNRPPRLPRPRPRPKVLPRP
shrunken log2 fold change: -0.105

RRIRNRPPRLPRPRPRPKWQPRP
shrunken log2 fold change: 0.182

RRIRNRPPRLPRPRPRPKWRPRP
shrunken log2 fold change: 0.792

RRIRNRPPRLPRPRPRPKYWPRP
shrunken log2 fold change: -0.387

RRIRNRPPRLPRPRPRPKYYPRP
shrunken log2 fold change: -0.887

RRIRNRPPRLPRPRPRPLACPRP
shrunken log2 fold change: 0.118

RRIRNRPPRLPRPRPRPLAFPRP
shrunken log2 fold change: 0.0414

RRIRNRPPRLPRPRPRPLAHPRP
shrunken log2 fold change: 0.212

RRIRNRPPRLPRPRPRPLAKPRP
shrunken log2 fold change: 0.249

RRIRNRPPRLPRPRPRPLCWPRP
shrunken log2 fold change: -0.198

RRIRNRPPRLPRPRPRPLDCPRP
shrunken log2 fold change: -0.00858

RRIRNRPPRLPRPRPRPLDEPRP
shrunken log2 fold change: 0.126

RRIRNRPPRLPRPRPRPLEPPRP
shrunken log2 fold change: 0.0692

RRIRNRPPRLPRPRPRPLFEPRP
shrunken log2 fold change: 0.205

RRIRNRPPRLPRPRPRPLGPPRP
shrunken log2 fold change: 0.0324

RRIRNRPPRLPRPRPRPLHGPRP
shrunken log2 fold change: -0.0305

RRIRNRPPRLPRPRPRPLIFPRP
shrunken log2 fold change: 1.39

RRIRNRPPRLPRPRPRPLIIPRP
shrunken log2 fold change: -0.433

RRIRNRPPRLPRPRPRPLIVPRP
shrunken log2 fold change: -0.332

RRIRNRPPRLPRPRPRPLKFPRP
shrunken log2 fold change: -0.212

RRIRNRPPRLPRPRPRPLKQPRP
shrunken log2 fold change: 0.114

RRIRNRPPRLPRPRPRPLLRPRP
shrunken log2 fold change: -0.267

RRIRNRPPRLPRPRPRPLMEPRP
shrunken log2 fold change: -0.0667

RRIRNRPPRLPRPRPRPLMRPRP
shrunken log2 fold change: 0.627

RRIRNRPPRLPRPRPRPLMVPRP
shrunken log2 fold change: -0.254

RRIRNRPPRLPRPRPRPLQFPRP
shrunken log2 fold change: 0.0375

RRIRNRPPRLPRPRPRPLRDPRP
shrunken log2 fold change: 0.521

RRIRNRPPRLPRPRPRPLSHPRP
shrunken log2 fold change: -0.596

RRIRNRPPRLPRPRPRPLTFPRP
shrunken log2 fold change: -0.0233

RRIRNRPPRLPRPRPRPLVGPRP
shrunken log2 fold change: 0.0121

RRIRNRPPRLPRPRPRPLVIPRP
shrunken log2 fold change: -0.432

RRIRNRPPRLPRPRPRPLVNPRP
shrunken log2 fold change: -0.289

RRIRNRPPRLPRPRPRPLWYPRP
shrunken log2 fold change: -0.619

RRIRNRPPRLPRPRPRPMCFPRP
shrunken log2 fold change: -0.114

RRIRNRPPRLPRPRPRPMDSPRP
shrunken log2 fold change: -0.0507

RRIRNRPPRLPRPRPRPMFGPRP
shrunken log2 fold change: -0.23

RRIRNRPPRLPRPRPRPMFQPRP
shrunken log2 fold change: -0.0465

RRIRNRPPRLPRPRPRPMFVPRP
shrunken log2 fold change: 0.134

RRIRNRPPRLPRPRPRPMGAPRP
shrunken log2 fold change: 0.115

RRIRNRPPRLPRPRPRPMHEPRP
shrunken log2 fold change: 0.0425

RRIRNRPPRLPRPRPRPMHRPRP
shrunken log2 fold change: -0.0926

RRIRNRPPRLPRPRPRPMIIPRP
shrunken log2 fold change: 0.0546

RRIRNRPPRLPRPRPRPMINPRP
shrunken log2 fold change: -0.346

RRIRNRPPRLPRPRPRPMIPPRP
shrunken log2 fold change: 0.0389

RRIRNRPPRLPRPRPRPMKKPRP
shrunken log2 fold change: 0.00302

RRIRNRPPRLPRPRPRPMMMPRP
shrunken log2 fold change: -0.0535

RRIRNRPPRLPRPRPRPMMSPRP
shrunken log2 fold change: 0.0191

RRIRNRPPRLPRPRPRPMMVPRP
shrunken log2 fold change: -0.194

RRIRNRPPRLPRPRPRPMNQPRP
shrunken log2 fold change: -0.123

RRIRNRPPRLPRPRPRPMPDPRP
shrunken log2 fold change: 0.259

RRIRNRPPRLPRPRPRPMPFPRP
shrunken log2 fold change: 0.00489

RRIRNRPPRLPRPRPRPMQQPRP
shrunken log2 fold change: -0.0561

RRIRNRPPRLPRPRPRPMRHPRP
shrunken log2 fold change: -0.18

RRIRNRPPRLPRPRPRPMSKPRP
shrunken log2 fold change: -0.197

RRIRNRPPRLPRPRPRPMVSPRP
shrunken log2 fold change: -0.145

RRIRNRPPRLPRPRPRPNAHPRP
shrunken log2 fold change: -0.456

RRIRNRPPRLPRPRPRPNANPRP
shrunken log2 fold change: -0.199

RRIRNRPPRLPRPRPRPNARPRP
shrunken log2 fold change: 0.0522

RRIRNRPPRLPRPRPRPNCPPRP
shrunken log2 fold change: -0.361

RRIRNRPPRLPRPRPRPNDHPRP
shrunken log2 fold change: -0.153

RRIRNRPPRLPRPRPRPNEMPRP
shrunken log2 fold change: -0.00174

RRIRNRPPRLPRPRPRPNFAPRP
shrunken log2 fold change: 0.0544
